Test results from patent publication US20140315817A1 (ALBUMEDIX, published 2014).

Biological target: T1, hsa-1: WT - Full Length HSA (human, UniProt P02768 25-609)
T1 construct: Yeast-expressed; also called HSA-wt; wt-HSA; not shown: Factor Xa cleavage site
Assay: method and origin of the value not stated

B1: recombinant mouse FcRn (R&D Systems, cat#6775-FC-050) (receptor)
chain 1: SETRPPLMYHLTAVSNPSTGLPSFWATGWLGPQQYLTYNSLRQEADPCGAWMWENQVSWYWEKETTDLKSKEQLFLEALKTLEKILNGTYTLQGLLGCELASDNSSVPTAVFALNGEEFMKFNPRIGNWTGEWPETEIVANLWMKQPDAARKESEFLLNSCPERLLGHLERGRRNLEWKEPPSMRLKARPGNSGSSVLTCAAFSFYPPELKFRFLRNGLASGSGNCSTGPNGDGSFHAWSLLEVKRGDEHHYQCQVEHEGLAQPLTVDLDSSARSS
chain 2: IQKTPQIQVYSRHPPENGKPNILNCYVTQFHPPHIEIQMLKNGKKIPKVEMSDMSFSKDWSFYILAHTEFTPTETDTYACRVKHASMAEPKTVYWDRDM
notes: Bought reagent
In the case of B1, the Kd is reported as about 80 µM.
